Data published in article PMC9496550.

Target: full length human kynurenine 3-monooxygenase fused to the C-terminal fragment of CFP (flKMO-CC) (human) (UniProt O15229)
Assay: split reporter (BiFC, NanoBiT); BiFC in live HEK293T cells 48 h after co-transfection, 37 °C, 5% CO2; CC + VN (KMO with HTT) or VN + VC (HTT with HTT) complementation; ScanR screening station (mean green intensity normalised by co-transfected RFP) or confocal microscopy

Sequence of UniProt O15229 (O15229 whole entry, the tested form may be a part): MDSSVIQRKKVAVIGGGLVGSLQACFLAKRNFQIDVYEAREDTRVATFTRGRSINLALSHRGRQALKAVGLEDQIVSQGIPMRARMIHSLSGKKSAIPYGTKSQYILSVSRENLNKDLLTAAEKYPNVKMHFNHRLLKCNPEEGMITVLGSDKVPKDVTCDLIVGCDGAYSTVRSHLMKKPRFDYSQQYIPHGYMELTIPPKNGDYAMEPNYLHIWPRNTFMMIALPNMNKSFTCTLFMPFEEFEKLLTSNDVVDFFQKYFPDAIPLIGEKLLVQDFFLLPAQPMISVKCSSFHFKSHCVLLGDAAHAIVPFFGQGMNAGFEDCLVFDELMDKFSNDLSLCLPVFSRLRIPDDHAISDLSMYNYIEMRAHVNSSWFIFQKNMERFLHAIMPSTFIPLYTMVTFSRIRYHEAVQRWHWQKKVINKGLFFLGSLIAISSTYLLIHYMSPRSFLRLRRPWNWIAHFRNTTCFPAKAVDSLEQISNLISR

reduction of the BiFC signal against flKMO-19Q: 50%
Substance: HTT exon 1 fragment with 97 glutamines fused to the N-terminal half of Venus (HTT97Q-VN) (domain or fragment)
